US20260116991A1 (HAINAN SIMCERE ZAIMING PHARMACEUTICAL, published 2026)
Where a chain is given by its changes, count along the chain named. Blank lines part the entries; values can stand above or below the binder they belong to.

How the values were obtained:
monkey GPC3-His protein [1] = target: T1, monkey GPC3-His protein (monkey); experiment: ELISA, monkey GPC3-His coated; antibody 2.67 nM
T1 construct: Bought protein; also called monkey GPC3 protein
Experimental: (§1) The specific method is described as follows: The antigen protein was diluted with PBS to a final concentration of 1 μg/mL, and the diluent was added to a 96-well ELISA plate at 50 μL/well. The plate was sealed with a plastic film and incubated at 4° C. overnight, washed twice with PBS the next day, and a blocking solution [PBS+2% (w/w) BSA] was added for blocking at room temperature for 2 h. […] After incubation at 37° C. for 2 h, the plate was washed 3 times with PBS. A horseradish peroxidase (HRP)-labeled secondary antibody (purchased from Merck, Cat. No. AP113P) was added for incubation at 37° C. for 1 h, and the plate was washed 5 times with PBS. A TMB substrate was added at 50 μL/well for incubation at room temperature for 10 min, then a stop solution (1.0M HCl) was added at 50 μL/well.

monkey GPC3-His protein [2] = target: T1, monkey GPC3-His protein; experiment: ELISA, monkey GPC3-His coated; antibody 66.66 nM
Experimental: as §1

monkey GPC3-His protein [3] = target: T1, monkey GPC3-His protein; experiment: ELISA, monkey GPC3-His coated; antibody 0.53 nM
Experimental: as §1

monkey GPC3-His protein [4] = target: T1, monkey GPC3-His protein; experiment: ELISA, monkey GPC3-His coated; antibody 0.0008 nM
Experimental: as §1

monkey GPC3-His protein [5] = target: T1, monkey GPC3-His protein; experiment: ELISA, monkey GPC3-His coated; antibody 0.11 nM
Experimental: as §1

monkey GPC3-His protein [6] = target: T1, monkey GPC3-His protein; experiment: ELISA, monkey GPC3-His coated; antibody 0.004 nM
Experimental: as §1

GPC3 on HepG2 cells = target: T2, GPC3 on HepG2 cells (human, UniProt P51654 25-554); experiment: FACS on HepG2 cells
T2 construct: whole, on cells; also called glypican-3
Experimental: The desired cells were expanded to a logarithmic growth phase in a T-75 cell culture flask, the medium was removed by pipetting, and the cells were washed twice with a PBS buffer, and digested with trypsin. Then a complete medium was added to stop the digestion, and the cells were blown into a single cell suspension. After counting, the cells were centrifuged, and the cell pellet was resuspended with an FACS buffer (PBS+2% fetal bovine serum) to 2×10⁶ cells/mL. The cell resuspension solution was added to a 96-well FACS reaction plate at 50 μl/well, and a humanized antibody sample to be tested was added at 50 μl/well for incubation at 4° C. for 1 h. […] After the plate was centrifuged and washed 3 times with a PBS buffer, 100 μl of the resulting solution was assayed and analyzed by FACS (FACS Canto™, purchased from BD Biosciences). Data analysis was performed by software (FlowJo) to obtain the mean fluorescence intensity (MFI) of the cells. Then, analysis was performed by software (GraphPad Prism8), data were fitted, and EC₅₀ values were calculated.

monkey GPC3-His protein [7] = target: T1, monkey GPC3-His protein; experiment: ELISA, monkey GPC3-His coated; antibody 13.33 nM
Experimental: as §1

monkey GPC3-His protein [8] = target: T1, monkey GPC3-His protein; experiment: ELISA, monkey GPC3-His coated; antibody 0.02 nM
Experimental: as §1

murine GPC3-his protein [9] = target: T3, murine GPC3-his protein (murine, UniProt Q8CFZ4 25-558, limits assumed); experiment: ELISA, murine GPC3-his coated; antibody 0.53 nM
T3 construct: Bought protein; also called mouse GPC3 protein; murine GPC3 protein; not shown: His tag

murine GPC3-his protein [10] = target: T3, murine GPC3-his protein; experiment: ELISA, murine GPC3-his coated; antibody 0.0008 nM
Experimental: as §1

murine GPC3-his protein [11] = target: T3, murine GPC3-his protein; experiment: ELISA, murine GPC3-his coated; antibody 2.67 nM
Experimental: as §1

murine GPC3-his protein [12] = target: T3, murine GPC3-his protein; experiment: ELISA, murine GPC3-his coated; antibody 13.33 nM
Experimental: as §1

murine GPC3-his protein [13] = target: T3, murine GPC3-his protein; experiment: ELISA, murine GPC3-his coated; antibody 66.66 nM
Experimental: as §1

murine GPC3-his protein [14] = target: T3, murine GPC3-his protein; experiment: ELISA, murine GPC3-his coated; antibody 0.02 nM
Experimental: as §1

murine GPC3-his protein [15] = target: T3, murine GPC3-his protein; experiment: ELISA, murine GPC3-his coated; antibody 0.11 nM
Experimental: as §1

murine GPC3-his protein [16] = target: T3, murine GPC3-his protein; experiment: ELISA, murine GPC3-his coated; antibody 0.004 nM
Experimental: as §1

polypeptide GC3pep [17] = target: T4, polypeptide GC3pep (human); experiment: ELISA, GC3pep coated, antibody 100 nM;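 also: detection with an HRP-conjugated secondary antibody and TMB substrate, color reaction stopped with HCl before absorbance reading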
T4 construct: also called membrane proximal polypeptide GC3pep
T4 peptide: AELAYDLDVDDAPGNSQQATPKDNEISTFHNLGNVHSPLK
Experimental: (§2) The plate was sealed with a plastic film and incubated at 4° C. overnight, washed twice with PBS the next day, and a blocking solution [PBS+2% (w/w) BSA] was added for blocking at room temperature for 2 h. […] After incubation at 37° C. for 2 h, the plate was washed 3 times with PBS. A horseradish peroxidase (HRP)-labeled secondary antibody (purchased from Merck, Cat. No. AP113P) was added for incubation at 37° C. for 1 h, and the plate was washed 5 times with PBS. A TMB substrate was added at 50 μL/well for incubation at room temperature for 10 min, then a stop solution (1.0M HCl) was added at 50 μL/well.

murine GPC3-His protein [18] = target: T5, murine GPC3-His protein (murine, UniProt Q8CFZ4 25-558, limits assumed); experiment: SPR, antibody captured on Protein A chip, murine GPC3-His injected
T5 construct: bought protein; also called murine GPC3 protein
Experimental: The flow cell was set at 25° C. The sample block was set at 16° C. Both were pretreated with the running buffer. In each cycle, first, the antibody to be tested was captured using the Protein A chip, and then a single concentration of GPC3 antigen protein was injected. […] The association was determined by injecting different concentrations of human GPC3-His in the solution and maintaining for 240 s, wherein the flow rate was 30 μL/min, and the protein was diluted at a 1:1 dilution ratio from 200 nM to obtain 5 concentrations in total. The dissociation phase was monitored for up to 600 s and triggered by switching from the sample solution to the running buffer. The surface was regenerated by washing with 10 mM glycine solution (pH 1.5) at a flow rate of 30 μL/min for 30 s. The difference in bulk refractive index was corrected by subtracting the responses obtained from the goat anti-human Fc surface. Blank injections (double reference) were also subtracted. To calculate the apparent KD and other kinetic parameters, the Langmuir 1:1 model was used.

polypeptide GC3pep [19] = target: T4, polypeptide GC3pep; experiment: ELISA, GC3pep coated, antibody 0.001 nM
polypeptide GC3pep [20] = target: T4, polypeptide GC3pep; experiment: ELISA, GC3pep coated, antibody 10 nM;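 also: antibody bound to the coated peptide for 2 h at 37 °C, detected through an HRP-conjugated secondary antibody with TMB colour development stopped by acid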
polypeptide GC3pep [21] = target: T4, polypeptide GC3pep; experiment: ELISA, GC3pep coated, antibody 1 nM;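 also: bound antibody detected with an HRP-conjugated secondary antibody and TMB substrate, reaction stopped with HCl, after 2 h binding at 37 °C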
polypeptide GC3pep [22] = target: T4, polypeptide GC3pep; experiment: ELISA, GC3pep coated, antibody 0.0001 nM
polypeptide GC3pep [23] = target: T4, polypeptide GC3pep; experiment: ELISA, GC3pep coated, antibody 0.1 nM;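 also: antibody allowed to bind the coated plate 2 h at 37 °C, then detected via HRP-conjugated secondary antibody and TMB development for 10 min, stopped with HCl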
Experimental: as §2

polypeptide GC3pep [24] = target: T4, polypeptide GC3pep; experiment: ELISA, GC3pep coated, antibody 0.01 nM;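 also: bound antibody detected with an HRP-conjugated secondary antibody and TMB substrate, color reaction stopped with HCl before reading absorbance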

T3 sequence (Q8CFZ4 25-558 limits assumed): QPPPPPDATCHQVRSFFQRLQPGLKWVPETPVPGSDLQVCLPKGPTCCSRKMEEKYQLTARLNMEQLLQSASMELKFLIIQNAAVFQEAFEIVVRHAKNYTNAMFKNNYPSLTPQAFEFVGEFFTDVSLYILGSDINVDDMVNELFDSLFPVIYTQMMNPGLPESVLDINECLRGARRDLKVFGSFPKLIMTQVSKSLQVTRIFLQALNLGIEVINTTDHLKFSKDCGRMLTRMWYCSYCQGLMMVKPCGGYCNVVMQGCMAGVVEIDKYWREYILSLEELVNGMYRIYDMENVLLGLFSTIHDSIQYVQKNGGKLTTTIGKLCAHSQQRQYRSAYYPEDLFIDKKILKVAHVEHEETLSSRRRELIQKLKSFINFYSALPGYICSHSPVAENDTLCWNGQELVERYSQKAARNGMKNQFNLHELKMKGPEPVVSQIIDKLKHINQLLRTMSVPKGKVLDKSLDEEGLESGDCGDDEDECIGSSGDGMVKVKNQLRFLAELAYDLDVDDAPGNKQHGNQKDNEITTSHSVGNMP
T5 sequence (Q8CFZ4 25-558 limits assumed): as above

B4: hAb001H1aL1 (antibody, human IgG1, V domains shown)
VH: EVQLVESGGGLVQPGGSLRLSCAASGFSFNTNAMNWVRQAPGKGLEWVGRIRSKSNNYATYYADSVKGRFTISRDDSKNSLYLQMNSLKTEDTAVYYCVRDGYYVLFAYWGQGTLVTVSS
VL: DIVMTQTPLSLPVTPGEPASISCRFSQSIVNSNGNTYLEWFLQKPGQSPQLLIYKVSNRFSGVPDRFSGSGSGTDFTLKISRVEAEDVGVYYCFQGSHVPFTFGQGTKLEIK
notes: Humanized F2.169.2, H1a+L1
- OD450 nm (murine GPC3-his protein [9]): 2.45
- OD450 nm (murine GPC3-his protein [10]): 0.255
- OD450 nm (monkey GPC3-His protein [1]): 2.57
- OD450 nm (murine GPC3-his protein [11]): 2.52
- OD450 nm (monkey GPC3-His protein [2]): 2.52
- OD450 nm (monkey GPC3-His protein [3]): 2.36
- OD450 nm (monkey GPC3-His protein [4]): 0.201
- OD450 nm (monkey GPC3-His protein [5]): 2
- OD450 nm (murine GPC3-his protein [12]): 2.63
- OD450 nm (monkey GPC3-His protein [6]): 0.379
- OD450 nm (murine GPC3-his protein [13]): 2.68
- OD450 nm (murine GPC3-his protein [14]): 1.15
- OD450 nm (murine GPC3-his protein [15]): 1.95
- OD450 nm (murine GPC3-his protein [16]): 0.44
- OD450 nm (monkey GPC3-His protein [7]): 2.52
- OD450 nm (monkey GPC3-His protein [8]): 1.03

B5: F1.145.22 (antibody, human IgG1, kappa, V domains shown)
VH: QVQLQQSGTDLARPGASVKLSCKASGYTFTSFGISWVKQRTGQGLEWIGEIYPRSGSPYYNEKFTGKATLTADKSSSTAYMELRSLTSEDSAVYFCAKDFGSSYVFDYWGQGTALTVSS
VL: DIQMTQSPASLSASVGETVTITCRASENIYSYLTWYQQKQGKSPQLLVYNAKTLAEGVPSRFSGSGSGTQFSLKINSLQPEDFGTYYCQHHYGTPPTFGTGTKLDLKR
notes: human-murine chimeric antibody
- OD450 nm (polypeptide GC3pep [17]): 0.11 OD450 nm
- Kd (murine GPC3-His protein [18]): 6.87 nM
- koff (murine GPC3-His protein [18]): 0.00173 s⁻¹
- kon (murine GPC3-His protein [18]): 251000 M⁻¹ s⁻¹
- OD450 nm (polypeptide GC3pep [19]): 0.04 OD450 nm
- OD450 nm (polypeptide GC3pep [20]): 0.05 OD450 nm
- OD450 nm (polypeptide GC3pep [21]): 0.04 OD450 nm
- OD450 nm (polypeptide GC3pep [22]): 0.04 OD450 nm
- OD450 nm (polypeptide GC3pep [23]): 0.04 OD450 nm
- OD450 nm (polypeptide GC3pep [24]): 0.04 OD450 nm

B6: F4.26.1 (antibody, human IgG1, kappa, V domains shown)
VH: QVQLKQSGPGLVQPSQSLSITCTVSGFSLTSYGVHWVRQSPGKGLEWLGVIWSSGNTDYNAVLISRLSIKKDDSKSQVFFKMNSPQVDDSAIYYCGRNGGWLLRGFMDFWGQGTSVTVSS
VL: DVVMTQTPLSLPVSLGDQASISCRSSQSLLHSNGNTYLHWYLQRSGQSPNLLIYKVSNRFSGVPDRFSGGGSGTDFTLKISRVEAEDLGIYFCSQSTHVPWTFGGGTKLEIKR
notes: as for B5
- OD450 nm (polypeptide GC3pep [17]): 0.12 OD450 nm
- Kd (murine GPC3-His protein [18]): 1.46 nM
- koff (murine GPC3-His protein [18]): 0.00072 s⁻¹
- kon (murine GPC3-His protein [18]): 492000 M⁻¹ s⁻¹
- OD450 nm (polypeptide GC3pep [19]): 0.19 OD450 nm
- OD450 nm (polypeptide GC3pep [20]): 0.04 OD450 nm
- OD450 nm (polypeptide GC3pep [21]): 0.28 OD450 nm
- OD450 nm (polypeptide GC3pep [22]): 0.05 OD450 nm
- OD450 nm (polypeptide GC3pep [23]): 0.08 OD450 nm
- OD450 nm (polypeptide GC3pep [24]): 0.16 OD450 nm

Results, then the binder that gave them:

- OD450 nm (monkey GPC3-His protein [1]): 2.36
- OD450 nm (monkey GPC3-His protein [2]): 2.35
- OD450 nm (monkey GPC3-His protein [3]): 2.3
- OD450 nm (monkey GPC3-His protein [4]): 0.185
- OD450 nm (monkey GPC3-His protein [5]): 1.96
- OD450 nm (monkey GPC3-His protein [6]): 0.386
- EC50 (GPC3 on HepG2 cells): 0.84 nM
- Max MFI (GPC3 on HepG2 cells): 4620
- OD450 nm (monkey GPC3-His protein [7]): 2.27
- OD450 nm (monkey GPC3-His protein [8]): 1.1
B1: hAb003LH2L1b (antibody, human IgG1, V domains shown)
VH: EVQLVQSGAEVKKPGSSVKVSCKASGYRFTDYEMHWVRQAPGQGLEWMGTIDPETGNTAYTQKFMDRVTITADKSTSTAYMELSSLRSEDTAVYYCTRGYSFTYWGQGTLVTVSS
VL: B4 VL with F25S, S28N, N31H, G34R, E39Q, F41Y, Y54F
notes: Humanized F2.154.1, H2+L1b

- OD450 nm (murine GPC3-his protein [9]): 2.48
- OD450 nm (murine GPC3-his protein [10]): 0.277
- OD450 nm (monkey GPC3-His protein [1]): 2.59
- OD450 nm (murine GPC3-his protein [11]): 2.59
- OD450 nm (monkey GPC3-His protein [2]): 2.68
- OD450 nm (monkey GPC3-His protein [3]): 2.47
- OD450 nm (monkey GPC3-His protein [4]): 0.304
- OD450 nm (monkey GPC3-His protein [5]): 2.11
- OD450 nm (murine GPC3-his protein [12]): 2.62
- OD450 nm (monkey GPC3-His protein [6]): 0.4
- OD450 nm (murine GPC3-his protein [13]): 2.62
- OD450 nm (murine GPC3-his protein [14]): 1.27
- OD450 nm (murine GPC3-his protein [15]): 2.1
- OD450 nm (murine GPC3-his protein [16]): 0.524
- OD450 nm (monkey GPC3-His protein [7]): 2.64
- OD450 nm (monkey GPC3-His protein [8]): 1.05
B2: hAb001H2L1 (antibody, human IgG1, V domains shown)
VH: B4 VH with G68D, N79S
VL: B4 VL
notes: Humanized F2.169.2, H2+L1

- OD450 nm (monkey GPC3-His protein [1]): 2.55
- OD450 nm (monkey GPC3-His protein [2]): 2.67
- OD450 nm (monkey GPC3-His protein [3]): 2.56
- OD450 nm (monkey GPC3-His protein [4]): 0.125
- OD450 nm (monkey GPC3-His protein [5]): 1.99
- OD450 nm (monkey GPC3-His protein [6]): 0.306
- EC50 (GPC3 on HepG2 cells): 1.49 nM
- Max MFI (GPC3 on HepG2 cells): 4610
- OD450 nm (monkey GPC3-His protein [7]): 2.38
- OD450 nm (monkey GPC3-His protein [8]): 1.01
B3: hAb006LH3L1b (antibody, human IgG1, V domains shown)
VH: B1 VH with R28T, M34I, T50A, E54K, T61N, D66G, I70L, G99Y, Y100F, T103A
VL: B4 VL with F25S, S28T, I29F, N31H, G34A, E39Q, F41Y, F101Y
notes: Humanized F3.38.7, H3+L1b
